This assay deals with recombinant human TfR1 (human) (UniProt P02786). Put plainly: SPR (Carterra LSA), IgG captured on chip, TfR1 as analyte, 25 C.
Chain of recombinant human TfR1 (human) (P02786 89-760 limits assumed): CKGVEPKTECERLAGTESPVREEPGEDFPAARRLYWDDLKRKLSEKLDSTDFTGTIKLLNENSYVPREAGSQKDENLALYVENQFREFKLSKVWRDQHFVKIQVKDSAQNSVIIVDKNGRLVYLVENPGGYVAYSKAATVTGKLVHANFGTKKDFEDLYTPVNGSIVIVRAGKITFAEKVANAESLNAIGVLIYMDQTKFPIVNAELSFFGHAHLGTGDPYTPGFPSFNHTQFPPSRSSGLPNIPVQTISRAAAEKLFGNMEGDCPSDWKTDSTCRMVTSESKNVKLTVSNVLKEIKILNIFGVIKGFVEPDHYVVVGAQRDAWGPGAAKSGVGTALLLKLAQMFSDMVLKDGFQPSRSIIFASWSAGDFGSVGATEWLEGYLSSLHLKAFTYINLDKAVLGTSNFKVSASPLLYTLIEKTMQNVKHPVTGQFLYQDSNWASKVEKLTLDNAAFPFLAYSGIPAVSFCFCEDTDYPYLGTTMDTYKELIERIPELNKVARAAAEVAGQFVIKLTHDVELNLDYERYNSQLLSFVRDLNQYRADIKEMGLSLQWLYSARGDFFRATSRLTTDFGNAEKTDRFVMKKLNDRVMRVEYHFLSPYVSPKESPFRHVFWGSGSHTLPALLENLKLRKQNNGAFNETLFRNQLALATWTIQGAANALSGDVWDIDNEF

In the case of OKT9 mIgG (antibody), the Kd was 0.536 nM.

The record behind these values is patent publication US20250152727A1.
